Values quoted from earlier work, collected in article PMC3310959.

Target: E-cadherin (Mus musculus) (UniProt P09803)

E-cadherin (from UniProt P09803)
Kd: 97 µM
